Results on one molecule are retold here after doi:10.1101/2025.07.01.662521, “Ligand-induced Conformational Plasticity of the CTLH E3 Ligase Receptor GID4” (bioRxiv, 2025).

In this test the target is T1, Human Glucose-induced degradation protein 4 homolog (GID4), residues 116-300, N-terminally Avi-tagged, … (human, UniProt Q8IVV7 116-300, biotin (BirA, on the AVI tag)).
T1 construct: Glucose-induced degradation protein 4 homolog (GID4), human, UniProt Q8IVV7, residues 116-300; Construct: N-terminal Strep-SUMO-3C-6xHis-AVI-tag; cleaved with HRV-3C protease, which by the printed order of the tags should leave 6xHis-AVI on the protein; also called hGID4; biotinylated GID4; source: E. coli BL21(DE3), purified (Streptactin XT, HRV-3C cleavage, BirA biotinylation, SEC); not shown: …
T1 sequence (looked up): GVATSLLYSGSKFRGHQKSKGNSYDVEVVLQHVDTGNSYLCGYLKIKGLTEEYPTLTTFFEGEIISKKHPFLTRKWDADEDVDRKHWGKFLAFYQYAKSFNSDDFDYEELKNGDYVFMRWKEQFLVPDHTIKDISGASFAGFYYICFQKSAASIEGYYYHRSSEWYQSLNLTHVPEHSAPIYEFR
Kind of test: SPR; biotinylated GID4 (116-300) captured on an SA chip (about 2500 RU), Biacore 8K; peptide flowed over; PBS pH 7.4, 0.05% P-20, 1 mM DTT, 1% DMSO. Conditions: both partners purified. Background: SPR reads the build-up and loss of mass on a sensor chip optically.

B1: degron peptide PGLWKS (peptide)
peptide: PGLWKS
notes: Pro/N-degron peptide; also called endogenous degron peptide; PGLWKS degron peptide
As a reminder, the Kd is the equilibrium constant for the complex coming apart. A low value points to higher affinity. B1 displayed a Kd of 2130 nM. This counts as single-digit micromolar.
